Here are results for one molecule from patent publication US11492376B2, “Toxoplasma gondii GRA8-derived recombinant peptides and composition for preventing or treating cancer comprising the same” (Industry—University Cooperation Foundation Hanyang …, priority 2019, dated 2022).

This test relates to HCT116 cells. The experiment in a line: Mitochondrial DNA quantification by real-time PCR. It counts as cell-based, human. Conditions: 1 day, via SIRT3 and PKCα. How it is done: FIGS. 4A, 4B, 4C, 4D and 4E show HCT116 cell death by rATRAM-GRA8-M/AS-induced mitochondrial activation [(A and B) HCT116 cells were incubated with WT rGRA8 or rATRAM-GRA8-M/AS and its mutants for indicated times, and then cell viability was measured with an MTT assay. […] The cells were stimulated with rATRAM-GRA8-M/AS for 1 day and subjected to enzymatic activity of OXPHOS V, and (C) MitoTracker fluorescence signals were assessed by flow cytometry. (D) A bar graph indicates a mitochondrial mass (MFI), and (E) the mtDNA content of BMDM was measured by quantitative real-time PCR. The mtDNA content was normalized by nuclear DNA. Significant differences were determined by comparison with control treatment (** P<0.01; *** P<0.001). Data represents five independent experiments with similar results].
To quantify the copy number of mitochondrial DNA (mtDNA), by the method described in Autophagy. 2014; 10:785-802: The AMPK-PPARGC1A pathway is required for antimicrobial host defense through activation of autophagy, an mtDNA to nuclear DNA (nDNA) ratio was measured. Pyruvate kinase (Pklr) was used as a marker for nDNA and NADH dehydrogenase subunit 1 (mt-Nd1) was used as a marker for mtDNA. A real-time PCR reaction was performed according to the manufacturer's instructions (QuantiFast SYBR green PCR master mix; Qiagen, 204052), and temperature cycling was performed in QuantStudio™ 3 (ABI). […]

B1: (GLAGLAGLLGLEGLLGLPLGLLEGLWLGLELEGN)2-GG-ATATTTTTTR-GG-YRFTVQTTQN (protein)
chain: GLAGLAGLLGLEGLLGLPLGLLEGLWLGLELEGNGLAGLAGLLGLEGLLGLPLGLLEGLWLGLELEGNGGATATTTTTTRGGYRFTVQTTQN
modifications: His tag; rATRAM-G8-M/AS
In the case of B1, the “mitochondrial DNA content” value is given as “enhanced”.
